Data set [1] addresses T1, LL-37 (cathelicidin antimicrobial peptide) (UniProt P49913 134-170).
T1 chain: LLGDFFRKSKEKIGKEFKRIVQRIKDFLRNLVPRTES
The data set can be described thus: EMSA; apparent KD from 50% loss of free aptamer; 100 nM RNA; 1 h on ice, 100 nM aptamer, 0-100 uM LL-37; binding buffer not stated; EMSA loading with 60 mM KCl, 10 mM Tris pH 7.6, 40% glycerol; 7% native PAGE in TBE. The conditions noted are these: label: 5' 32P. A general note: Mobility shift assays separate free from complexed probe on a gel.

Data set [2] has as its target T1, LL-37 (cathelicidin antimicrobial …). The data set can be described thus: filter binding; apparent KD from 50% loss of free aptamer; 100 nM RNA; 1 h on ice, 100 nM aptamer, 0-100 uM LL-37; binding buffer not stated; EMSA loading with 60 mM KCl, 10 mM Tris pH 7.6, 40% glycerol; 7% native PAGE in TBE. As to conditions: label: 5' 32P.

For the molecule GGUCUAGCCGGAGGAGUCAGUAAUCGGUAGACC (XNA, 2'-fluoro C and U) [Apt 21-2], the Kd in data set [1] and in data set [2] was roughly 2000 nM in each case.
